Data as given in patent publication US20150037312A1 (University of Washington, published 2015).

Target: T1, Rituximab (human IgG1), biotinylated (human)
T1 construct: Whole IgG; In the first screen it was oligomerized with streptavidin-phycoerythrin; in SPR it was captured on a streptavidin chip; also called Rituxan; IgG1 Rituxan
Assay: titration of biotinylated Rituxan on yeast displaying the clone; pH 8 implied
Experimental: We then determined the Kd of exemplary isolated clones for IgG at different pHs. Measurements were taken via titrations of biotinylated Rituxan (Rituximab) using yeast surface display as discussed in the materials and methods sections.
Yeast cells (EBY100) containing plasmid encoding the designs, were grown overnight at 30° C. in SDCAA medium. For induction, they were sub-cultured into SGCAA to achieve an O.D. of 1, and grown at 22° C. for 16-20 h. Cells were washed once with PBS containing 0.5% BSA (PBS-BSA), before adding 700 nM biotinylated IgG (Rituximab) into a total volume of 50 μl of the same buffer. […] Cells were washed once with ice cold PBS-BSA immediately before measuring their fluorescence via an Accuri C6 flow cytometer, data was analyzed using the FlowJo 7.6.1 and 8.8.7 software.

Kd: ~2 nM
B1: FcB6.1 (designed binder)
chain: PEEALIVVDMQRDFMPGGALPVPEGDKIIPKVNEYIRKFKEKGALIVATRDWHPENHISFRERGGPWPRHCVQNTPGAEFVVDLPEDAVIISKATEPDKEAYSGFEGTDLAKILRGNGVKRVYICGVATEYCVSRTAVDALKHGFEVYLLRDAVKGIKPTFEQQSFFYMSLKGIKIVQF
notes: Clone from the pH 8 selection of the focused library; also called Fc24.47
